From paper PMC6827302 (2019)

B1: human cMyBP-C N-terminal domains C0–C1 (domain or fragment)
chain: MPEPGKKPVSAFSKKPRSVEVAAGSPAVFEAETERAGVKVRWQRGGSDISASNKYGLATEGTRHTLTVREVGPADQGSYAVIAGSSKVKFDLKVIEAEKAEPMLAPAPAPAEATGAPGEAPAPAAELGESAPSPKGSSSAALNGPTPGAPDDPIGLFVMRPQDGEVTVGGSITFSARVAGASLLKPPVVKWFKGKWVDLSSKVGQHLQLHDSYDRASKVYLFELHITDAQPAFTGSYRCEVSTKDKFDCSNFNLTV
B2: human cMyBP-C C0–C2 3SD (S275D, S284D, S304D) (domain or fragment)
chain: MPEPGKKPVSAFSKKPRSVEVAAGSPAVFEAETERAGVKVRWQRGGSDISASNKYGLATEGTRHTLTVREVGPADQGSYAVIAGSSKVKFDLKVIEAEKAEPMLAPAPAPAEATGAPGEAPAPAAELGESAPSPKGSSSAALNGPTPGAPDDPIGLFVMRPQDGEVTVGGSITFSARVAGASLLKPPVVKWFKGKWVDLSSKVGQHLQLHDSYDRASKVYLFELHITDAQPAFTGSYRCEVSTKDKFDCSNFNLTVHEAMGTGDLDLLSAFRRTDLAGGGRRIDDSHEDTGILDFSSLLKKRDDFRTPRDSKLEAPAEEDVWEILRQAPPSEYERIAFQYGVTDLRGMLKRLKGMRRDEKKSTAFQKKLEPAYQVSKGHKIRLTVELADHDAEVKWLKNGQEIQMSGSKYIFESIGAKRTLTISQCSLADDAAYQCVVGGEKCSTELFVKEPPVLITRPLEDQLVMVGQRVEFECEVSEEGAQVKWLKDGVELTREETFKYRFKKDGQRHHLIINEAMLEDAGHYALCTSGGQALAELIVQEKKLEVYQSIADLMVGAKDQAVFKCEVSDENVRGVWLKNGKELVPDSRIKVSHIGRVHKLTIDDVTPADEADYSFVPEGFACNLSAKLHFMEVKIDFVPRQEPPKIHLDCPGRIPDTIVVVAGNKLRLDVPISGDPAPTVIWQKAITQGNKAPARPAPDAPEDTGDSDEWVFDKKLLCETEGRVRVETTKDRSIFTVEGAEKEDEGVYTVTVKNPVGEDQVNLTVKVIDVPDAPAAPKISNVGEDSCTVQWEPPAYDGGQPILGYILERKKKKSYRWMRLNFDLIQELSHEARRMIEGVVYEMRVYAVNAIGMSRPSPASQPFMPIGPPSEPTHLAVEDVSDTTVSLKWRPPERVGAGGLDGYSVEYCPEGCSEWVAALQGLTEHTSILVKDLPTGARLLFRVRAHNMAGPGAPVTTTEPVTVQEILQRPRLQLPRHLRQTIQKKVGEPVNLLIPFQGKPRPQVTWTKEGQPLAGEEVSIRNSPTDTILFIRAARRVHSGTYQVTVRIENMEDKATLVLQVVDKPSPPQDLRVTDAWGLNVALEWKPPQDVGNTELWGYTVQKADKKTMEWFTVLEHYRRTHCVVPELIIGNGYYFRVFSQNMVGFSDRAATTKEPVFIPRPGITYEPPNYKALDFSEAPSFTQPLVNRSVIAGYTAMLCCAVRGSPKPKISWFKNGLDLGEDARFRMFSKQGVLTLEIRKPCPFDGGIYVCRATNLQGEARCECRLEVRVPQ

Target: unlabeled F-actin from rabbit skeletal muscle (rabbit, UniProt P68135 1-377)

Binder | Kd [µM]
B1 | 32
B2 | 7
